From publication PMC10758951 (2023)
No end group written: not given here.

B1: BRD2-BD1 65-194 (protein)
chain: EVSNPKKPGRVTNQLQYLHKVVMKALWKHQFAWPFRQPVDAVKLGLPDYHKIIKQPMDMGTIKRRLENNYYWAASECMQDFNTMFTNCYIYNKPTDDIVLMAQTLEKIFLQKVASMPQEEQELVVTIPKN
B2: BRD3-BD1 25-147 (protein)
chain: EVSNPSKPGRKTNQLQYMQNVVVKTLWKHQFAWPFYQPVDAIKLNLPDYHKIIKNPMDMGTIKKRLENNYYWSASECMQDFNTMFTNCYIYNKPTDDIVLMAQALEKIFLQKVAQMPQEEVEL
B3: 2AcK (peptide)
chain: K(Ac)LLK(Ac)HLYH

Legend:
2AcK [1] = target: B3; test: SPR
2AcK [2] = target: B3; test: ITC
BRD4-BD1 42-168 = BRD4-BD1 42-168 (Homo sapiens, UniProt O60885); test: SPR

Binder: B1
- Kd (2AcK [1]): 2000 nM

Binder: B2
- Kd (2AcK [1]): 2000 nM
- Kd (2AcK [2]): 10000 nM

Binder: B3
- Kd (BRD4-BD1 42-168): 1000 nM
